Laboratory results: US20240067742A1 (4C BIOMED, published 2024)
Residue numbers refer to the chain shown, from its start. Numbers in names are those of the source.

T1: HVEM on HVEM-positive melanoma cells (UniProt Q92956 39-283, limits assumed)
T1 sequence (looked up): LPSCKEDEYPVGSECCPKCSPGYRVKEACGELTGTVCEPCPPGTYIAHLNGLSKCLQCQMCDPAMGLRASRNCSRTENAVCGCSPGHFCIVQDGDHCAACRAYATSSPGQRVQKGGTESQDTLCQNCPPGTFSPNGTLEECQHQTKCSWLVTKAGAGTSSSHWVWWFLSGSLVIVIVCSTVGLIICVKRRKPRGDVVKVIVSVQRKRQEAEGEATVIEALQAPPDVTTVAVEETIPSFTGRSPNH

T2: His-tagged human HVEM (human, UniProt Q92956 39-202)
T2 construct: extracellular domain; also called His-tagged HVEM (Acro Biosystems); HVEM extracellular domain peptide; not shown: His tag
T2 sequence (looked up): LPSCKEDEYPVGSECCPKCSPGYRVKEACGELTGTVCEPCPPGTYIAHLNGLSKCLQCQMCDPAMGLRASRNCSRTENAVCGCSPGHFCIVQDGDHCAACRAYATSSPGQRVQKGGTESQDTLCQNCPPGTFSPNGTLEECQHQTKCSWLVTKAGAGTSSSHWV

B1: H4-T57A (antibody, human IgG4 S228P, kappa, V domains shown)
VH: QVQLVQSGGGLVQPGGSLRLSCAASGFTFSSYAMSWVRQAPGKGLEWVSNIYSNPNRAYYADSVEGRFTISRDNSKNTLYLQMNSLRAEDTAVYYCAKAPGDYTAYFDYWGQGTLVTVSS
VL: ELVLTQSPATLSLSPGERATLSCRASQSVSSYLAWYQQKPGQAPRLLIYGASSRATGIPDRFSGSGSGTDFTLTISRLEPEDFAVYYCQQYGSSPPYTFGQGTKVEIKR
notes: H4 variant without the CDR-H2 glycosylation site; also called T57A antibody; T57A variant
B2: H4-T57G (antibody, human IgG4 S228P, kappa, V domains shown)
VH: B1 VH with A58G
VL: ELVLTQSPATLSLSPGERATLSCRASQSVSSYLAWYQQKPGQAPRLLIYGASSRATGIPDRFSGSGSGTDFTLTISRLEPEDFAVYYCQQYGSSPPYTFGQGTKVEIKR
notes: H4 variant without the CDR-H2 glycosylation site; also called H4-T57G-CDR2
B3: H4-T57N (antibody, human IgG4 S228P, kappa, V domains shown)
VH: B1 VH with A58N
VL: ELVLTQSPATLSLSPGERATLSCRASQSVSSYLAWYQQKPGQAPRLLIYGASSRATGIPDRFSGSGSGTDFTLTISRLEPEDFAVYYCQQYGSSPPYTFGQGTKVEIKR
notes: H4 variant without the CDR-H2 glycosylation site; also called H4-T57N-CDR2
B4: H4-N55Q (antibody, human IgG4 S228P, kappa, V domains shown)
VH: B1 VH with N56Q, A58T
VL: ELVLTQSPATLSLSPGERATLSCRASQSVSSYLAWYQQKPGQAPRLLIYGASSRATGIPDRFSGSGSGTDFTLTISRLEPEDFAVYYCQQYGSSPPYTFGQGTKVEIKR
notes: H4 variant without the CDR-H2 glycosylation site; also called H4-N55Q-CDR2
B5: H4-T57E (antibody, human IgG4 S228P, kappa, V domains shown)
VH: B1 VH with A58E
VL: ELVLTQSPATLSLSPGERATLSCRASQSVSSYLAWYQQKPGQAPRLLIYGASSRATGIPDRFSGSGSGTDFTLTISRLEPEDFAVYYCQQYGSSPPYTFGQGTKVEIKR
notes: H4 variant without the CDR-H2 glycosylation site; also called H4-T57E-CDR2
B6: H4-N55D (antibody, human IgG4 S228P, kappa, V domains shown)
VH: B1 VH with N56D, A58T
VL: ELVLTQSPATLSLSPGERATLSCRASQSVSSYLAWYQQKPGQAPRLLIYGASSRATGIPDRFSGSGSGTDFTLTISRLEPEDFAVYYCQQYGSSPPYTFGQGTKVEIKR
notes: H4 variant without the CDR-H2 glycosylation site; also called H4-N55D-CDR2
B7: H4-N55G (antibody, human IgG4 S228P, kappa, V domains shown)
VH: B1 VH with N56G, A58T
VL: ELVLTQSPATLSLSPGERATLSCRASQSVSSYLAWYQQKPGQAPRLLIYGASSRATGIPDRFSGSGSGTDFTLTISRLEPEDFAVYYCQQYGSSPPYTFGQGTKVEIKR
notes: H4 variant without the CDR-H2 glycosylation site; also called H4-N55G-CDR2
B8: H4-N55E (antibody, human IgG4 S228P, kappa, V domains shown)
VH: B1 VH with N56E, A58T
VL: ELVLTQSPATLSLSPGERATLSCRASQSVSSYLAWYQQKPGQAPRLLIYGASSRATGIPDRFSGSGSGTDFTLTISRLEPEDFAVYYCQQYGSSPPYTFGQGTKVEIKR
notes: H4 variant without the CDR-H2 glycosylation site; also called H4-N55E-CDR2
B9: H4-N55S (antibody, human IgG4 S228P, kappa, V domains shown)
VH: B1 VH with N56S, A58T
VL: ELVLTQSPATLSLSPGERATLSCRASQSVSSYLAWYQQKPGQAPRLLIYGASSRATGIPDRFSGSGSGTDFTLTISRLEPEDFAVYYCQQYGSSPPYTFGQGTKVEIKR
notes: H4 variant without the CDR-H2 glycosylation site; also called H4-N55S-CDR2
B10: H4 (antibody, human IgG4 S228P, kappa, V domains shown)
VH: B1 VH with A58T
VL: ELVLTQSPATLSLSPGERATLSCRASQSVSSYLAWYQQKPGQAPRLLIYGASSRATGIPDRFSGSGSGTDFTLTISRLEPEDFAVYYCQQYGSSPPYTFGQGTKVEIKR
modifications: N-linked glycosylation site (NXS/T; NRT) in CDR-H2 found to be glycosylated in the final antibody (FIG. 1)
notes: also called H4-CDR2; H4 antibody
B11: L18-H5 (antibody, human IgG4 S228P, kappa, V domains shown)
VH: B1 VH with Y52N, S53G, N54P, P55G, R57G, A58T
VL: ELVLTQSPATLSLSPGERATLSCRASQSVSSYLAWYQQKPGQAPRLLIYGASSRATGIPDRFSGSGSGTDFTLTISRLEPEDFAVYYCQQYGSYPPLTFGQGTKVEIKR
notes: combination of the L18 light chain and the H5 heavy chain; also called L18 (CDR3)-H5 (CDR2)
B12: Par-K64E (antibody, human IgG4 S228P, kappa, V domains shown)
VH: B1 VH with N50A, Y52S, S53G, N54S, P55G, N56G, R57S, A58T
VL: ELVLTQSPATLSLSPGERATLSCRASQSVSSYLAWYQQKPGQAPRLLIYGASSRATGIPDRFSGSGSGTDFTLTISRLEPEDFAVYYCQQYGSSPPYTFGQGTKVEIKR
notes: also called Parental-K64E-VH-CDR2; Par-K64E antibody
B13: H8 (antibody, human IgG4 S228P, kappa, V domains shown)
VH: B1 VH with N50A, Y52G, S53G, N54S, P55G, N56S, R57G, A58T, E65K
VL: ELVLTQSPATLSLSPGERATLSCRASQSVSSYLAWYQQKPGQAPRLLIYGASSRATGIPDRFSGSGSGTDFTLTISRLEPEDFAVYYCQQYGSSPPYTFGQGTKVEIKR
notes: also called H8-CDR2
B14: L18 (antibody, human IgG4 S228P, kappa, V domains shown)
VH: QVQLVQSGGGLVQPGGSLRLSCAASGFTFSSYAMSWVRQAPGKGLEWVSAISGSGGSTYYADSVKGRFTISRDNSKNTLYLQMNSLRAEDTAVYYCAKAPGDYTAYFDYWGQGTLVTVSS
VL: B11 VL
notes: also called L18 (CDR3)
B15: H6 (antibody, human IgG4 S228P, kappa, V domains shown)
VH: B1 VH with N50G, Y52N, S53G, P55G, N56D, R57Y, A58T, E65K
VL: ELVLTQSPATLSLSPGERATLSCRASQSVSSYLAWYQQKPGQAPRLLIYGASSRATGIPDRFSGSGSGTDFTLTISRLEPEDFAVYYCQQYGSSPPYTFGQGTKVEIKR
notes: also called H6-CDR2
B16: H4-E64K (antibody, human IgG4 S228P, kappa, V domains shown)
VH: B1 VH with A58T, E65K
VL: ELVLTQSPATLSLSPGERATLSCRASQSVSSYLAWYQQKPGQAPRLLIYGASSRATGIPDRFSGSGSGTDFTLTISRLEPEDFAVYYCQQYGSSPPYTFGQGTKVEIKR
notes: also called H4-E64K-CDR2
B17: H5 (antibody, human IgG4 S228P, kappa, V domains shown)
VH: B1 VH with Y52N, S53G, N54P, P55G, R57G, A58T
VL: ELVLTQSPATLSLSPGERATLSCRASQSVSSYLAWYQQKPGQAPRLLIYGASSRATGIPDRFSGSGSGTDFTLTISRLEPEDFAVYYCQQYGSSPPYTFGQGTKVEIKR
notes: also called H5-CDR2
B18: L18-H4 (antibody, human IgG4 S228P, kappa, V domains shown)
VH: B1 VH with A58T
VL: B11 VL
notes: combination of the L18 light chain and the H4 heavy chain; also called L18 (CDR3)-H4 (CDR2)
B19: human recombinant HVEM (hHVEM) (receptor, UniProt Q92956 39-202, looked up)
chain: T2 sequence (looked up)
notes: Recombinant protein coated at 2.5 ug/ml; also called recombinant hHVEM; hHVEM coated plates

What follows are binders tested against T1, HVEM on HVEM-positive melanoma cells (assay: cell-based or functional assay).

Binder | increase in specific killing events (Caspase 3/7) in melanoma cells cocultured with autologous TILs, as compared to the isotype control, after nine hours [%]
B1 | 19
B2 | 19
B3 | 9

The binders below were run against T2, His-tagged human HVEM (assay: Biacore T200 single-cycle kinetics, antibody supernatant captured on Protein A, His-tagged HVEM as analyte; reference: Parental).
Experimental: (§1) Single Cycle Kinetics: To assess the binding of the affinity matured IgGs, single cycle kinetic analysis was performed on supernatants using a Biacore T200 (serial no. 1909913). Kinetic experiments were performed at 25° C. running Biacore T200 Control software V2.0.1 and Evaluation software V3.0 (Cytiva, Marlborough, USA). Antibodies were diluted in HBS-P+(Cytiva, Marlborough, USA) containing 1 mg/ml BSA to a final concentration of 1.0 μg/ml. Antibodies were loaded onto Fc2, Fc3 and Fc4 of the Protein A capture Sensor chip (Cytiva, Marlborough, USA). IgGs were captured at a flow rate of 10 μl/min to give an immobilisation level (RL) of ˜50 RU. The surface was then allowed to stabilize. Single cycle kinetics data was obtained using His-tagged HVEM (Acro Biosystems, Newark, USA) as the analyte at a flow rate of 40 μl/min. A two-fold dilution range from […] to 100 nM His-tagged antigen without regeneration between each concentration was used.
(§2) First a multicycle kinetics Biacore affinity assay was performed to confirm the improved binding of the H4, T57A, T57G and T57N antibodies (FIG. 3A). Each purified antibody was captured to a Protein A sensor chip before increasing concentrations of antigen (hHVEM) were injected. The fold improvement in affinity was calculated by dividing the average KD of the parent antibody by the average KD for each variant antibody. […] A single-cycle kinetic Biacore assay was also performed with the H4 N55G, H4 N55S, H4 N55D, H4 N55Q, H4 N55E, and H4 T57E antibodies (FIG. 3B).

Binder | Fold improvement (KD parent / KD variant) [fold]
B4 | 2.59
B5 | 2.4
B6 | 3.93
B7 | 4.29
B8 | 2.73
B9 | 2.67

What follows are binders tested against T2, His-tagged human HVEM (assay: Biacore T200 single-cycle kinetics, antibody supernatant captured on Protein A, His-tagged HVEM as analyte, 25 C).
Experimental: as §1, §2

Binder | Kd [nM]
B4 | 21.7
B5 | 23.4
B6 | 14.3
B7 | 13.1
B8 | 20.6
B9 | 21

These binders were tested against T2, His-tagged human HVEM (assay: Biacore 8K multi-cycle kinetics, purified antibody captured on Protein A, His-tagged human HVEM as analyte; reference: Parental).
Experimental: (§3) Multi-Cycle Kinetics: Multicycle kinetic analysis was performed on purified antibodies. Kinetic experiments were performed at 25° C. on a Biacore 8K. HBS-P+0.1% BSA (Cytiva, Marlborough, USA) was used as running buffer. Purified antibodies were diluted to 1.0 μg/mL in running buffer and at the start of each cycle, loaded onto Fc2, Fc3 and Fc4 of a Protein A sensor chip (Cytiva, Marlborough, USA). Antibodies were captured at a flow rate of 10 μl/min to give an immobilisation level (RL) of ˜ 100 RU. The surface was then allowed to stabilise. Multi-cycle kinetic data was obtained using His-tagged human HVEM as the analyte injected at a flow rate of 50 μl/min. A eight point, two-fold dilution range from 0.78 nM to 100 nM of antigen were prepared in running buffer. For each concentration, the association phases were monitored for 180 seconds and the dissociation phase was measured for 300 seconds. Regeneration of the sensor chip surface was conducted between cycles using two injections of 10 mM Glycine-HCl, pH 1.5.
as §2

Binder | Fold improvement (KD parent / KD variant) [fold]
B10 | 14
B1 | 30.1
B2 | 8.97
B3 | 33.6

The binders below were run against T2, His-tagged human HVEM (assay: Biacore 8K multi-cycle kinetics, purified antibody captured on Protein A, His-tagged human HVEM as analyte, 25 C).
Experimental: as §3, §2

Binder | Kd [nM]
B10 | 4.65
B1 | 2.17
B2 | 7.27
B3 | 1.94

What follows are binders tested against B19 (assay: blocking ELISA: antibody titrated on plate-bound hHVEM in the presence of hBTLA, bound hBTLA detected (OD); the IC50 column has no unit, µg/ml is the unit of the x axis).

Binder | IC50 [µg/mL]
B1 | 0.53

Each binder was assayed against T2, His-tagged human HVEM (assay: Biacore KD to HVEM extracellular domain, IgG captured on Protein A, His-tagged HVEM as analyte; reference: Parental).
Experimental: Affinity maturation: To improve binding affinity, the parental antibody was affinity matured using phage display. Heavy and/or light chain CDRs of variable domain regions were semi-randomized using oligonucleotide mutagenesis. Selections were performed using separate heavy and light chain phage libraries and decreasing concentrations of biotinylated His-tagged HVEM target to select the highest affinity binders from each library. Following four rounds of selections individual clones were screened as scFv supematants in a binding ELISA to identify lead candidates with signals greater than the parental scFv expressed in the same assay. Identified hits were converted into IgG and cloned into mammalian expression vectors. Plasmids encoding the affinity improved variants paired with the appropriate parental heavy or light chain, as well as the parental antibody, were transiently transfected small scale into HEK EBNA adherent cells (LGC Standards, Teddington, UK). At five days post-transfection, the supernatants were harvested, quantified by Octet (serial no. FB-30203) and analysed by Biacore single cycle kinetics.
as §1

Binder | Fold improvement vs parental (KD) [fold]
B10 | 9.57
B11 | 1.51
B12 | 3.14
B13 | 1.3
B4 | 2.59
B5 | 2.4
B14 | 1
B1 | 20.7
B2 | 6.24
B15 | 1.53
B16 | 2.15
B3 | 23.5
B17 | 5.05
B18 | 2.57
B6 | 3.93
B7 | 4.29
B8 | 2.73
B9 | 2.67

The binders below were run against T3, hLIGHT-His (human, UniProt O43557 59-240) (assay: ELISA, plate coated with hHVEM, antibody 10 µg/ml present, hLIGHT-His 2.5 µg/ml, detection with anti-LIGHT).
T3 construct: Named only as hLIGHT-His; also called recombinant hLIGHT; not shown: exact limits of the vendor construct
T3 sequence (O43557 59-240 limits assumed): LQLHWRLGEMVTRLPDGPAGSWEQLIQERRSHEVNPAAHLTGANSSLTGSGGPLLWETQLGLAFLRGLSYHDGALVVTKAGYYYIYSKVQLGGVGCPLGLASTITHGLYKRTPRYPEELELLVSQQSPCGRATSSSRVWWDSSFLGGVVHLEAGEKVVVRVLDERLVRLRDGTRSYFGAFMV

Binder | binding result
B19 | binds
